Series [1] concerns the molecule itself. Nature of the series: native MS; pH 7.4, 100 mM ammonium acetate; AcrA^L with 0.03% DDM.
Series [2] deals with the molecule itself. Briefly: native MS; pH 6.0, 100 mM ammonium acetate; AcrA^L with 0.03% DDM (2x CMC); Synapt G2-Si or Q-Exactive UHMR.
Series [3] concerns the target T1, AcrB in SMALP (styrene maleic acid lipid particle) nanodiscs (E. coli, UniProt P31224 1-1049).
T1 construct: AcrB, inner membrane RND transporter of the E. coli AcrAB-TolC pump; pET15b plasmid; embedded in native lipid SMALP nanodiscs; also called trimeric AcrB SMALPs; source: E. coli C43(DE3) ΔacrAB, extracted from membranes with 2.5% SMA 2000 into native nanodiscs, purified (nickel NTA)
T1 sequence: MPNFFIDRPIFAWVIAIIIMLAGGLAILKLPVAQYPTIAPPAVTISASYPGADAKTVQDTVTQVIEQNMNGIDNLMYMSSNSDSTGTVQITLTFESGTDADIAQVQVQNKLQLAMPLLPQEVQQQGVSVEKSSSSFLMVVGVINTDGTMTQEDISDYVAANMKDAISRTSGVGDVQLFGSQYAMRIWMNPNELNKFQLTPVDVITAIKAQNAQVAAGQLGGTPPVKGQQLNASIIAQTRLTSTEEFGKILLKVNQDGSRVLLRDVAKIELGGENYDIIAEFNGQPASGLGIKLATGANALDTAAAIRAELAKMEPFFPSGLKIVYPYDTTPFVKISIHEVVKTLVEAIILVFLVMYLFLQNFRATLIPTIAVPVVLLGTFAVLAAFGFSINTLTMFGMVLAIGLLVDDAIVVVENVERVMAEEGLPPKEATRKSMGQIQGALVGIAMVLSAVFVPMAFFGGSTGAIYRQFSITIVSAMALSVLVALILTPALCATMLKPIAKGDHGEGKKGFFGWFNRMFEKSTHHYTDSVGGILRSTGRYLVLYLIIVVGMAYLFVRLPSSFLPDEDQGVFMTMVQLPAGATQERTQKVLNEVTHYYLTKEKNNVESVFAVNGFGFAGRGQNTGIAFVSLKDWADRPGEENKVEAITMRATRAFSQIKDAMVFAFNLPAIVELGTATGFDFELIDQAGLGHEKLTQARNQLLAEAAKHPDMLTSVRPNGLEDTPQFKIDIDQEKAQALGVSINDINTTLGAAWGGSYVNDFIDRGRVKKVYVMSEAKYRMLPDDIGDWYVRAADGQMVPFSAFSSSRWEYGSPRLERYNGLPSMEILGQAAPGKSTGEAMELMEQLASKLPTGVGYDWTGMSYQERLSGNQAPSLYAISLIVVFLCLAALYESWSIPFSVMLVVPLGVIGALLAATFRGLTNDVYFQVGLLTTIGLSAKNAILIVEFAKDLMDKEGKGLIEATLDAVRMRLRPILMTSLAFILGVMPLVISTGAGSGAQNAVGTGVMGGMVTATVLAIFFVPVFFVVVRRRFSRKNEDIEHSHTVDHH
Nature of the series: native gel or EMSA; SMA-PAGE (native PAGE for SMALPs): AcrA constructs mixed with AcrB in SMALP nanodiscs; Novex Tris-Glycine 4-20% gels, 25 mM Tris pH 8.8, 192 mM glycine, 150 V, 4 °C, Coomassie stain. Particulars: both partners purified. For orientation: Mobility shift assays separate free from complexed probe on a gel.

The term stoichiometry N denotes the number of molecules, sites or subunits per partner or assembly.

B1: AcrA^L (lipidated AcrA) (natural protein)
chain: CDDKQAQQGGQQMPAVGVVTVKTEPLQITTELPGRTSAYRIAEVRPQVSGIILKRNFKEGSDIEAGVSLYQIDPATYQATYDSAKGDLAKAQAAANIAQLTVNRYQKLLGTQYISKQEYDQALADAQQANAAVTAAKAAVETARINLAYTKVTSPISGRIGKSNVTEGALVQNGQATALATVQQLDPIYVDVTQSSNDFLRLKQELANGTLKQENGKAKVSLITSDGIKFPQDGTLEFSDVTVDQTTGSITLRAIFPNPDHTLLPGMFVRARLEEGLNPNAILVPQQGVTRTPRGDATVLVVGADDKVETRPIVASQAIGDKWLVTEGLKAGDRVVISGLQKVRPGVQVKAQEVTADNNQQAASGAQPEQSKS
modifications: lipidated at Cys25 (after cleavage of signal peptide 1-24)
notes: AcrA, periplasmic adaptor protein of E. coli; full length AcrA cloned from genomic DNA; signal peptide residues 1-24 is cleaved, the protein begins at lipidated Cys25; Cloned into pET28a with NcoI and XhoI; source: E. coli C43(DE3) ΔacrAB, solubilised from membranes with 1% DDM, purified (HiTrap, SEC) in 0.03% DDM
With B1, the “stoichiometry N” value in series [1] was at most 5; in series [2], 2.

B2: AcrA^S (soluble AcrA lacking signal peptide and lipidation) (domain or fragment)
chain: MDDKQAQQGGQQMPAVGVVTVKTEPLQITTELPGRTSAYRIAEVRPQVSGIILKRNFKEGSDIEAGVSLYQIDPATYQATYDSAKGDLAKAQAAANIAQLTVNRYQKLLGTQYISKQEYDQALADAQQANAAVTAAKAAVETARINLAYTKVTSPISGRIGKSNVTEGALVQNGQATALATVQQLDPIYVDVTQSSNDFLRLKQELANGTLKQENGKAKVSLITSDGIKFPQDGTLEFSDVTVDQTTGSITLRAIFPNPDHTLLPGMFVRARLEEGLNPNAILVPQQGVTRTPRGDATVLVVGADDKVETRPIVASQAIGDKWLVTEGLKAGDRVVISGLQKVRPGVQVKAQEVTADNNQQAASGAQPEQSKS
notes: AcrA of E. coli without signal peptide residues 1-24; Cys25 replaced by a starting methionine (Met25); not lipidated; pET28a construct; source: E. coli C43(DE3) ΔacrAB, cytosolic fraction, purified (HiTrap, SEC)
Turning to B2, the “stoichiometry N” value in series [3] came out at 1.

For the origin of these results see publication PMC10354078, “Conformational restriction shapes the inhibition of a multidrug efflux adaptor protein” (Nature Communications, 2023).
